The test concerns the target T1, FEZ1 (amino acids 1-308), EmGFP-tagged (UniProt Q99689 1-308).
T1 construct: FEZ1, amino acids 1-308; plasmid as described in Chua et al., 2012; also called truncated FEZ1 lacking its C terminus; source: HEK293, transfected, in lysate
T1 sequence (looked up): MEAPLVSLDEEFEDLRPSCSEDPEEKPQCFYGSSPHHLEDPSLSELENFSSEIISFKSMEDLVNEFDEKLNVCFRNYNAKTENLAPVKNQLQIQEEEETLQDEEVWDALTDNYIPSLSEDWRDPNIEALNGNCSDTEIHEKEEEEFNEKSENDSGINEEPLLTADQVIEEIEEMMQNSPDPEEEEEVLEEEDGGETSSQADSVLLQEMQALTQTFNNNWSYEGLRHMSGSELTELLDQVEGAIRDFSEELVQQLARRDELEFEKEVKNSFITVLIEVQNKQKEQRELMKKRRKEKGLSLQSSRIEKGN
Nature of the test: co-IP; HEK293 cells co-expressing the two tagged proteins, 24 h after transfection; lysis and washes in 50 mM HEPES, 150 mM NaCl, 1 mM EDTA, 1% Triton X-100, pH 7.2; GFP-Trap agarose beads 1-3 h at 4°C; immunoblot. Particulars: partners not purified. (In general: A western blot detects proteins with antibodies after separation by electrophoresis.)

Consider 1 molecule from publication PMC8174033, “FEZ1 Forms Complexes with CRMP1 and DCC to Regulate Axon and Dendrite Development” (eNeuro, 2021).

B1: collapsin response mediator protein 1 (CRMP1), full-length, FLAG-tagged (natural protein)
chain: not shown
notes: CRMP1, human cDNA, full-length, in pFLAG-CMV2; also called FLAG-CRMP1; source: HEK293, transfected, in lysate
In the case of B1, the “fold change of co-precipitated CRMP1 against full-length FEZ1” value is roughly 3 fold.
